Paper PMC6579465

Molecular target: CAPS1 (calcium-dependent activator protein for secretion, CADPS) (rat (endogenous in rat brain)) (UniProt Q62717)
Assay: affinity purification with mass spectrometry; CAPS1 immunoprecipitate of detergent extract resolved by SDS-PAGE; Coomassie-stained bands seen in the CAPS1 but not the control immunoprecipitate excised, in-gel digests, LC-MS/MS

Chain of CAPS1 (calcium-dependent activator protein for secretion, CADPS) (rat (endogenous in rat brain)) (Q62717 whole entry): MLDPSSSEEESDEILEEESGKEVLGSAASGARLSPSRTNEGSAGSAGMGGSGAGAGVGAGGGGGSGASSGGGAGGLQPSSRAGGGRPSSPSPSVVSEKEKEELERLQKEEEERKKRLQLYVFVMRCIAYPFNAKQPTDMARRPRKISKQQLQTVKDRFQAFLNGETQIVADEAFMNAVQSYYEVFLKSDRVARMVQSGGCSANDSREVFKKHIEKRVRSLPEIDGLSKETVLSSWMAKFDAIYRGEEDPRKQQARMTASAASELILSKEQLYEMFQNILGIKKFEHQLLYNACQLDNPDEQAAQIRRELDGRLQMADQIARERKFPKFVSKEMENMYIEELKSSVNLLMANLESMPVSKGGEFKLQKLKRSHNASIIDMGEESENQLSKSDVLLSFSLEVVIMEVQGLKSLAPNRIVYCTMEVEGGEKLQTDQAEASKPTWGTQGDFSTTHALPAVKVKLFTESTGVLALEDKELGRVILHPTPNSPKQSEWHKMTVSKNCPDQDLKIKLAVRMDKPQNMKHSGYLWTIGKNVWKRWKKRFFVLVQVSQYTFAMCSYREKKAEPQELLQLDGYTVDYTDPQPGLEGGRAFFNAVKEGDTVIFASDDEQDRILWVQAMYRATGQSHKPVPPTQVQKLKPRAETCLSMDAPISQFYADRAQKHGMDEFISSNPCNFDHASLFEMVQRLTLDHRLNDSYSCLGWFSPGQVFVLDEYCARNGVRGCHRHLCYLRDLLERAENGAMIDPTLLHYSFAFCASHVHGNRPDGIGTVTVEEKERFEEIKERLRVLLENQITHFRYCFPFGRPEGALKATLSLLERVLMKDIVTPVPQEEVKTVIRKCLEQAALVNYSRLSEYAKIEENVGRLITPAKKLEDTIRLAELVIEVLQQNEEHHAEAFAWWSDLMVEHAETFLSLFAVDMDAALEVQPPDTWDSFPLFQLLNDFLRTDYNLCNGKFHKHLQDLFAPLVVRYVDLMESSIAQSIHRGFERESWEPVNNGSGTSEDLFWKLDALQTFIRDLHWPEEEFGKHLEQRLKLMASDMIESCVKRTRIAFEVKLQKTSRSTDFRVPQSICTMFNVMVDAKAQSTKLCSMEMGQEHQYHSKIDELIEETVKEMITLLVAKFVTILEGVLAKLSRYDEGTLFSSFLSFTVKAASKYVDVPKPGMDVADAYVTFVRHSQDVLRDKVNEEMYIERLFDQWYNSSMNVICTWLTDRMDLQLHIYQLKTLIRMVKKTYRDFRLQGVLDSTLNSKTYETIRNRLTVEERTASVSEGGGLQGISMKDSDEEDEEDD

stoichiometry relative to CAPS1 (bands of the immunoprecipitate) (Rbcn3 subunit : CAPS1): 0.167
Substance: Rabconnectin3α (Rbcn3α) / Dmx-like 2 (DMXL2) (natural protein)
